Measurements: article PMC13053990

B1: PI3K92 E fused with the C-terminal fragment of the luciferase (natural protein)
chain: MNMMDNRALAYVAHQPKYETPPEEAEPPCMRFSVNLWKNEMLNWVDLICLLPNGFLLELRVNPANTIQVIKVEMVNQAKQMPLGYVIKEACEYQVYGISTFNIEPYTDETKRLSEVQPYFGILSLGERTDTTSFSSDYELTKMVNGMIGTTFDHNRTHGSPEIDDFRLYMTQTCDNIELERSAYTWQQRLLYEHPLRLANSTKMPELIRERHPTRTFLIVVKNENDQSTFTLSVNEQDTPFSLTESTLQKMNRSQMKMNDRTSDYILKVSGRDEYLLGDYPLIQFLYIQEMLSDSAVPNVVLQSVYRLESYINHHNEQAMVTKRPLPKKRTVHLHKSISSLWDMGNYFQLTLHSISNVNFDKTRALKVGVHVCLYHGDKKLCAQRSTDSPNGNFDTFLFNDLVMDFDIQMRNLPRMTRLCIVIFEVTKMSRSKKSSNNKDIALKDVPYNKNPLAWVNTTIFDHKDILRTGRHTLYTWTYADDIQSVEVFHPLGTIEPNPRKEECALVDLTFLSSGTGTVRYPSEEVVLQYAADREQVNRLQRQLAGPEKPIKELKELMANYTGLDKIYEMVDQDRNAIWERRNDILRELPEELSILLHCVYWKERDDVADMWYLLKQWPLISIERSLELLDYAYPDPAVRRFAIRCLHFLKDEDLLLYLLQLVQAIKHESYLESDLVVFLLERALRNQRIGHYFFWHLRSEMQTPSMQTRFGLLLEVYLKGCKHHVAPLRKQLHVLEKLKQGSLIAKKGSKEKVKTMLQDFLRDQRNSAVFQNIQNPLNPSFRCSGVTPDRCKVMDSKMRPLWVVFENADVNASDVHIIFKNGDDLRQDMLTLQMLRVMDQLWKRDGMDFRMNIYNCISMEKSLGMIEVVRHAETIANIQKEKGMFSATSPFKKGSLLSWLKEHNKPADKLNKAINEFTLSCAGYCVATYVLGVADRHSDNIMVKRNGQLFHIDFGHILGHFKEKLGVRRERVPFVLTHDFVYVINKGFNDRESKEFCHFQELCERAFLVLRKHGCLILSLFSMMISTGLPELSSEKDLDYLRETLVLDYTEEKAREHFRAKFSEALANSWKTSLNWASHNFSKNNKQ
B2: ref(2)P (refractory to sigma P), the orthologue of the human p62/Sequestosome 1 protein (natural protein)
chain: MPEKLLKITYQGAGPQKKINAYLRMPSQNYTILRREIELYLFQERQLPKCDVRTFWIDADKDEIEIVNQNDYEIFLAKCESNMHVQVAPLAPVEEPKATKQEGSSANAEAPSVDDPSNFTIHDAVECDGCGLAPLIGFRYKCVQCSNYDLCQKCELAHKHPEHLMLRMPTNNGPGMVDAWFTGPGLGRRSGRRSRGHCPFQETNQADPAGEPARDSRRERRQARRHAGVLTQFVEMMTNLPLNTTTATAPAEPQKPKAAEQTESPPQAEPTVTAEKAAESEAKPTEPKKVNTDQSVPRTEDPVTTPRSTQPTTPVINLDNISQIVPPEYMSAGIEILNNFSEMFSKIIDTTEGGDSGIFAPSTTPSAENKKPEEQGQSSGQSGASSANQSAVPSAAPSANQSNVPSANQSATPSISGSIPDAQLETEPLNPKPSETTTETEQERRRSDSLDPEWQLIDNAYSANNSNLINLDTTNPTAAPQEPVRDFGQLGELLRQHMNEEARVEQASANTQTAQVDTVSTSTSTTSVTTNSVGTSPAAPDDKRTVPVYHTDESINKSIHAMMAMGFSNEGAWLTQLLESVQGNISAALDVMNVSQNRN

Tests used:
[1] = target: miPEP8 fused on its C-terminus to the N-terminal fragment of luciferase (N-Luc) (Drosophila melanogaster); experiment: split reporter (BiFC, NanoBiT); split firefly luciferase in S2 cells: miPEP8 or Ey fused to N-Luc, candidates or Antp fused to C-Luc; 48 h after transfection, D-luciferin, luminescence normalised; negative control: the two fragments not fused to any protein
[2] = target: EGFP-miPEP8 SLiMmt (mutated SLiM MOD_Plk1/MOD_Plk4) (Drosophila melanogaster); experiment: affinity purification with mass spectrometry; GFP-Trap agarose beads O/N at 4 °C on lysates of S2 cells transfected with EGFP, EGFP-miPEP8 or EGFP-miPEP8 SLiMmt; lysis buffer 50 mM Tris pH 7.5, 50 mM NaCl, 5% glycerol, 0.1% Igepal; four washes; LC-MS/MS, MaxQuant

Binder | luminescence signal, times the negative control (times the negative control) [1] | fold decrease of the interaction against EGFP-miPEP8 (MS intensity) [2] [fold]
B1 | 4.6 | –
B2 | – | 2.8
